Assay results: EP4806467A2

Assays:
[1] = molecular target: ADAM9 on human tumour cells (LS174T, HepG2, Calu-3) (human) (UniProt Q13443); assay: flow cytometry on HepG2 cells, negative control, 250 nM
[2] = molecular target: ADAM9 on human tumour cells (LS174T, HepG2, Calu-3) (human) (UniProt Q13443); assay: flow cytometry on LS174T cells, negative control, 250 nM
[3] = molecular target: ADAM9 on human tumour cells (LS174T, HepG2, Calu-3) (human) (UniProt Q13443); assay: flow cytometry on HepG2 cells, negative control, 1000 nM
[4] = molecular target: ADAM9 on human tumour cells (LS174T, HepG2, Calu-3) (human) (UniProt Q13443); assay: flow cytometry on HepG2 cells, negative control, 62.5 nM
[5] = molecular target: ADAM9 on human tumour cells (LS174T, HepG2, Calu-3) (human) (UniProt Q13443); assay: flow cytometry on LS174T cells, negative control, 1000 nM
[6] = molecular target: ADAM9 on human tumour cells (LS174T, HepG2, Calu-3) (human) (UniProt Q13443); assay: flow cytometry on LS174T cells, negative control, 62.5 nM
[7] = molecular target: ADAM9 on human tumour cells (LS174T, HepG2, Calu-3) (human) (UniProt Q13443); assay: flow cytometry on HepG2 cells, negative control, 15.625 nM
[8] = molecular target: ADAM9 on human tumour cells (LS174T, HepG2, Calu-3) (human) (UniProt Q13443); assay: flow cytometry on LS174T cells, negative control, 15.625 nM
[9] = molecular target: ADAM9 on human tumour cells (LS174T, HepG2, Calu-3) (human) (UniProt Q13443); assay: flow cytometry on HepG2 cells, negative control, 0.000238 nM
[10] = molecular target: ADAM9 on human tumour cells (LS174T, HepG2, Calu-3) (human) (UniProt Q13443); assay: flow cytometry on HepG2 cells, negative control, 0.000954 nM
[11] = molecular target: ADAM9 on human tumour cells (LS174T, HepG2, Calu-3) (human) (UniProt Q13443); assay: flow cytometry on HepG2 cells, negative control, 0.003815 nM
[12] = molecular target: ADAM9 on human tumour cells (LS174T, HepG2, Calu-3) (human) (UniProt Q13443); assay: flow cytometry on HepG2 cells, negative control, 0.015259 nM
[13] = molecular target: ADAM9 on human tumour cells (LS174T, HepG2, Calu-3) (human) (UniProt Q13443); assay: flow cytometry on HepG2 cells, negative control, 0.061035 nM
[14] = molecular target: ADAM9 on human tumour cells (LS174T, HepG2, Calu-3) (human) (UniProt Q13443); assay: flow cytometry on HepG2 cells, negative control, 0.244141 nM
[15] = molecular target: ADAM9 on human tumour cells (LS174T, HepG2, Calu-3) (human) (UniProt Q13443); assay: flow cytometry on HepG2 cells, negative control, 0.976563 nM
[16] = molecular target: ADAM9 on human tumour cells (LS174T, HepG2, Calu-3) (human) (UniProt Q13443); assay: flow cytometry on HepG2 cells, negative control, 3.906250 nM
[17] = molecular target: ADAM9 on human tumour cells (LS174T, HepG2, Calu-3) (human) (UniProt Q13443); assay: flow cytometry on LS174T cells, negative control, 0.000954 nM
[18] = molecular target: ADAM9 on human tumour cells (LS174T, HepG2, Calu-3) (human) (UniProt Q13443); assay: flow cytometry on LS174T cells, negative control, 0.003815 nM
[19] = molecular target: ADAM9 on human tumour cells (LS174T, HepG2, Calu-3) (human) (UniProt Q13443); assay: flow cytometry on LS174T cells, negative control, 0.015259 nM
[20] = molecular target: ADAM9 on human tumour cells (LS174T, HepG2, Calu-3) (human) (UniProt Q13443); assay: flow cytometry on LS174T cells, negative control, 0.061035 nM
[21] = molecular target: ADAM9 on human tumour cells (LS174T, HepG2, Calu-3) (human) (UniProt Q13443); assay: flow cytometry on LS174T cells, negative control, 0.244141 nM
[22] = molecular target: ADAM9 on human tumour cells (LS174T, HepG2, Calu-3) (human) (UniProt Q13443); assay: flow cytometry on LS174T cells, negative control, 0.976563 nM
[23] = molecular target: ADAM9 on human tumour cells (LS174T, HepG2, Calu-3) (human) (UniProt Q13443); assay: flow cytometry on LS174T cells, negative control, 3.906250 nM
[24] = molecular target: ADAM9 on human tumour cells (LS174T, HepG2, Calu-3) (human) (UniProt Q13443); assay: flow cytometry on HepG2 cells, 250 nM
[25] = molecular target: ADAM9 on human tumour cells (LS174T, HepG2, Calu-3) (human) (UniProt Q13443); assay: flow cytometry on HepG2 cells, 1000 nM
[26] = molecular target: ADAM9 on human tumour cells (LS174T, HepG2, Calu-3) (human) (UniProt Q13443); assay: flow cytometry on HepG2 cells, 62.5 nM
[27] = molecular target: ADAM9 on human tumour cells (LS174T, HepG2, Calu-3) (human) (UniProt Q13443); assay: flow cytometry on HepG2 cells, 15.625 nM
[28] = molecular target: ADAM9 on human tumour cells (LS174T, HepG2, Calu-3) (human) (UniProt Q13443); assay: flow cytometry on HepG2 cells, 0.000238 nM
[29] = molecular target: ADAM9 on human tumour cells (LS174T, HepG2, Calu-3) (human) (UniProt Q13443); assay: flow cytometry on HepG2 cells, 0.000954 nM
[30] = molecular target: ADAM9 on human tumour cells (LS174T, HepG2, Calu-3) (human) (UniProt Q13443); assay: flow cytometry on HepG2 cells, 0.003815 nM
[31] = molecular target: ADAM9 on human tumour cells (LS174T, HepG2, Calu-3) (human) (UniProt Q13443); assay: flow cytometry on HepG2 cells, 0.015259 nM
[32] = molecular target: ADAM9 on human tumour cells (LS174T, HepG2, Calu-3) (human) (UniProt Q13443); assay: flow cytometry on HepG2 cells, 0.061035 nM
[33] = molecular target: ADAM9 on human tumour cells (LS174T, HepG2, Calu-3) (human) (UniProt Q13443); assay: flow cytometry on HepG2 cells, 0.244141 nM
[34] = molecular target: ADAM9 on human tumour cells (LS174T, HepG2, Calu-3) (human) (UniProt Q13443); assay: flow cytometry on HepG2 cells, 0.976563 nM
[35] = molecular target: ADAM9 on human tumour cells (LS174T, HepG2, Calu-3) (human) (UniProt Q13443); assay: flow cytometry on HepG2 cells, 3.906250 nM
[36] = molecular target: ADAM9 on human tumour cells (LS174T, HepG2, Calu-3) (human) (UniProt Q13443); assay: flow cytometry on LS174T cells, 250 nM
[37] = molecular target: ADAM9 on human tumour cells (LS174T, HepG2, Calu-3) (human) (UniProt Q13443); assay: flow cytometry on LS174T cells, 1000 nM
[38] = molecular target: ADAM9 on human tumour cells (LS174T, HepG2, Calu-3) (human) (UniProt Q13443); assay: flow cytometry on LS174T cells, 62.5 nM
[39] = molecular target: ADAM9 on human tumour cells (LS174T, HepG2, Calu-3) (human) (UniProt Q13443); assay: flow cytometry on LS174T cells, 15.625 nM
[40] = molecular target: ADAM9 on human tumour cells (LS174T, HepG2, Calu-3) (human) (UniProt Q13443); assay: flow cytometry on LS174T cells, 0.000954 nM
[41] = molecular target: ADAM9 on human tumour cells (LS174T, HepG2, Calu-3) (human) (UniProt Q13443); assay: flow cytometry on LS174T cells, 0.003815 nM
[42] = molecular target: ADAM9 on human tumour cells (LS174T, HepG2, Calu-3) (human) (UniProt Q13443); assay: flow cytometry on LS174T cells, 0.015259 nM
[43] = molecular target: ADAM9 on human tumour cells (LS174T, HepG2, Calu-3) (human) (UniProt Q13443); assay: flow cytometry on LS174T cells, 0.061035 nM
[44] = molecular target: ADAM9 on human tumour cells (LS174T, HepG2, Calu-3) (human) (UniProt Q13443); assay: flow cytometry on LS174T cells, 0.244141 nM
[45] = molecular target: ADAM9 on human tumour cells (LS174T, HepG2, Calu-3) (human) (UniProt Q13443); assay: flow cytometry on LS174T cells, 0.976563 nM
[46] = molecular target: ADAM9 on human tumour cells (LS174T, HepG2, Calu-3) (human) (UniProt Q13443); assay: flow cytometry on LS174T cells, 3.906250 nM

Chain of ADAM9 on human tumour cells (LS174T, HepG2, Calu-3) (human) (Q13443 29-819): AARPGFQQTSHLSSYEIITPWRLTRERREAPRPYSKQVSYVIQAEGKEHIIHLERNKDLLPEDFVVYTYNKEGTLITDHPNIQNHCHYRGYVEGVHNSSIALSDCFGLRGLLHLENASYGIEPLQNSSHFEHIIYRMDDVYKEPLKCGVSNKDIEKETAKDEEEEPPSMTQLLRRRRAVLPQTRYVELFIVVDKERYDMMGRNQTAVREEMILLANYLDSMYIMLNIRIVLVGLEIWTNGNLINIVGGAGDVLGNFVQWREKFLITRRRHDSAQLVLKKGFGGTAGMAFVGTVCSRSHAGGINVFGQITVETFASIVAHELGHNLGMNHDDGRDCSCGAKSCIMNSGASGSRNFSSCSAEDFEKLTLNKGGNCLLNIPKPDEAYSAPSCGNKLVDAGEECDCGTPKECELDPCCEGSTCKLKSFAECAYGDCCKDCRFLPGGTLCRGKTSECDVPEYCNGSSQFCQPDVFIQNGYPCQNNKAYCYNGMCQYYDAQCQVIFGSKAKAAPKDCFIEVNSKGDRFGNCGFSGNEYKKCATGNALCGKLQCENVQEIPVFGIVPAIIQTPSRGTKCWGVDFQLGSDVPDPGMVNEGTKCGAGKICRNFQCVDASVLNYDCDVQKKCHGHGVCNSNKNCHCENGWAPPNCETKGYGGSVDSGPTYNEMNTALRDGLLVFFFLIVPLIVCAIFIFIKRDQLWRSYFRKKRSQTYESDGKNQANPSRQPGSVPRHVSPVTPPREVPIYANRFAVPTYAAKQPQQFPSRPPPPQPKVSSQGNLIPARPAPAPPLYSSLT

anti-HIV human IgG antibody (iso-IgG1, produced by WuXi AppTec)
Mean fluorescence intensity (MFI) [1]: 389 MFI
Mean fluorescence intensity [2]: 269 MFI
Mean fluorescence intensity (MFI) [3]: 690 MFI
Mean fluorescence intensity (MFI) [4]: 386 MFI
Mean fluorescence intensity [5]: 368 MFI
Mean fluorescence intensity [6]: 229 MFI
Mean fluorescence intensity (MFI) [7]: 364 MFI
Mean fluorescence intensity [8]: 209 MFI
Mean fluorescence intensity (MFI) [9]: 361 MFI
Mean fluorescence intensity (MFI) [10]: 365 MFI
Mean fluorescence intensity (MFI) [11]: 349 MFI
Mean fluorescence intensity (MFI) [12]: 371 MFI
Mean fluorescence intensity (MFI) [13]: 377 MFI
Mean fluorescence intensity (MFI) [14]: 363 MFI
Mean fluorescence intensity (MFI) [15]: 360 MFI
Mean fluorescence intensity (MFI) [16]: 361 MFI
Mean fluorescence intensity [17]: 220 MFI
Mean fluorescence intensity [18]: 254 MFI
Mean fluorescence intensity [19]: 213 MFI
Mean fluorescence intensity [20]: 202 MFI
Mean fluorescence intensity [21]: 208 MFI
Mean fluorescence intensity [22]: 212 MFI
Mean fluorescence intensity [23]: 203 MFI

B1: Ab16-X1 (antibody, human IgG1, kappa, V domains shown)
VH: QVQLQQPGTEVVKPGASVKLSCKASGFTFPLYWMHWVRQRPGRGLEWIGRIIPIFGHTKYNEKFKNKATLTADESSSTAYMELRSLTSDDSAVYYCARGGYYYYPREGFLDYWGQGTSVTVSS
VL: DIVMTQSPASLSVSPGERASISCRSSQSVDYSGDSYMNWYQQKPGQSPRLLIYAASDRESGVPDRFSGSGSGTDFTLKISRVEEEDAGTYYCQQSREDPFTFGQGTKVDIKR
modifications: linker-payload X1 (camptothecin derivative) conjugated after TCEP reduction; DAR p = 7.8 for the whole antibody; positions not given
Mean fluorescence intensity (MFI) [24]: 16600 MFI
Mean fluorescence intensity (MFI) [25]: 17400 MFI
Mean fluorescence intensity (MFI) [26]: 3290 MFI
Mean fluorescence intensity (MFI) [27]: 2960 MFI
Mean fluorescence intensity (MFI) [28]: 370 MFI
Mean fluorescence intensity (MFI) [29]: 376 MFI
Mean fluorescence intensity (MFI) [30]: 396 MFI
Mean fluorescence intensity (MFI) [31]: 451 MFI
Mean fluorescence intensity (MFI) [32]: 623 MFI
Mean fluorescence intensity (MFI) [33]: 1090 MFI
Mean fluorescence intensity (MFI) [34]: 1790 MFI
Mean fluorescence intensity (MFI) [35]: 1780 MFI

B2: Ab16-X2 (antibody, human IgG1, kappa, V domains shown)
VH: B1 VH
VL: B1 VL
modifications: linker-payload X2 (camptothecin derivative) conjugated after TCEP reduction; DAR p = 7.9 for the whole antibody; positions not given
Mean fluorescence intensity [36]: 2130 MFI
Mean fluorescence intensity [37]: 1130 MFI
Mean fluorescence intensity [38]: 2160 MFI
Mean fluorescence intensity [39]: 2400 MFI
Mean fluorescence intensity [40]: 223 MFI
Mean fluorescence intensity [41]: 219 MFI
Mean fluorescence intensity [42]: 268 MFI
Mean fluorescence intensity [43]: 447 MFI
Mean fluorescence intensity [44]: 954 MFI
Mean fluorescence intensity [45]: 1960 MFI
Mean fluorescence intensity [46]: 2380 MFI
